Source: patent US7618787B2, “Method of screening compound capable of accelerating or inhibiting apoptosis, apoptosis accelarator and apoptosis inhibitor” (Hisamitsu Pharmaceutical Co., Inc., priority 2004, dated 2009)

Assays:
GST-p73 fusion proteins = biological target: T1, GST-p73 fusion proteins (Homo sapiens, UniProt O15350); experiment: In vitro GST pull-down assay; format: binding; conditions: in vitro pull-down (FIG. 13)
T1 construct: made in house
T1 sequence (O15350 114-328): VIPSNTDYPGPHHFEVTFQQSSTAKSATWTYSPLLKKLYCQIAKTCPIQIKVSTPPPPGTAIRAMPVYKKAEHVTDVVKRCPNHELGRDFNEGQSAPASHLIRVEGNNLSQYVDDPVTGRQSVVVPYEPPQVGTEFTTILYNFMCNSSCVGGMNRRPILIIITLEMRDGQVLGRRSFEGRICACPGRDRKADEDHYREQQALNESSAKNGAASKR
Protocol: Whole cell lysates prepared from COS7 cells expressing FLAG-IKK-α were mixed with glutathione S-transferase (GST) or GST fusion protein and incubated with slow shaking at 4° C. for 2 hours in the presence of glutathione-Sepharose beads (Amersham Pharmacia Biotech). Then, the Sepharose beads were precipitated by brief centrifugation and vigorously washed with NETN buffer (pH 7.5; 50 mM Tris-Cl, 150 mM sodium chloride, 0.1% NP-40, and 1 mM EDTA) containing 1 mM PMSF. The proteins bound with the beads were eluted therefrom by the addition of 30 μL of 2×Laemmli SDS sample buffer, then boiled for 5 minutes, and separated with 10% SDS-PAGE. The proteins were transferred to PVDF membranes and immunoblotted with […] as described above.
To investigate whether IKK-α interacted with p73 in cultured mammal cells, whole cell lysates were prepared from transfected COS7 cells, then immunoprecipitated with an anti-FLAG or anti-HA antibody, and analyzed by immunoblot using an anti-p73 or anti-FLAG antibody, respectively. […] Likewise, HA-p73β was co-immunoprecipitated with FLAG-IKK-α (data not shown). […] To identify determinants of p73 participating in the interaction with IKK-α, several deletion mutants of p73 fused to GST were prepared and examined for their abilities to bind to FLAG-IKK-α by in-vitro pull-down assay. […]

p53 = p53 protein level (stabilization) by immunoblot in cotransfected COS7 cells; format: cell-based; conditions: COS7 cotransfection (FIG. 14, 15)
Protocol: Cells were transiently transfected with a total of 2 μg of expression plasmids. After 48 hours of the transfection, the cells were washed with ice-cold PBS and suspended in lysis buffer (pH 8.0; which contained 25 mM Tris-Cl, 137 mM sodium chloride, 1% Triton X-100, 1 mM phenylmethylsulfonyl fluoride (PMSF), and protease inhibitor mix (Roche Molecular Biochemicals)), followed by brief sonication. After centrifugation at 15000 rpm for 10 minutes, the supernatant was collected and assayed for protein concentrations by the Bradford assay (Bio-Rad). Equal amounts of lysates (protein amount: 50 μg) from the whole cells were denatured by boiling in Laemmli SDS-sample buffer, then separated on 10% SDS-polyacrylamide gel (SDS-PAGE), and transferred at room temperature for 1 hour to polyvinylidene difluoride (PVDF) membranes (Immobilon-P; Millipore) in Tris-glycine buffer containing 10% methanol. The membranes were blocked at room temperature for 1 hour with Tris-buffered saline (TBS-T) containing 5% skim milk and 0.1% Tween 20.
As previously reported, some protein kinases (e.g., c-Abl and PKCδ) that interact with p73 can stabilize p73. To confirm whether IKK-α influenced the stabilization of p73, COS7 cells were transfected with a constant amount of HA-p73α expression plasmid together with or without varying amounts of IKK-α expression plasmids and examined for HA-p73α protein levels. […]

p73 [1] = biological target: T2, p73 (Homo sapiens, UniProt O15350); experiment: Co-immunoprecipitation with p73 in transfected COS7 cells; format: binding; conditions: COS7, co-immunoprecipitation (FIG. 10, FIG. 28)
T2 construct: expressed in transfected cells; host or cells: COS7
T2 sequence (O15350 1-636): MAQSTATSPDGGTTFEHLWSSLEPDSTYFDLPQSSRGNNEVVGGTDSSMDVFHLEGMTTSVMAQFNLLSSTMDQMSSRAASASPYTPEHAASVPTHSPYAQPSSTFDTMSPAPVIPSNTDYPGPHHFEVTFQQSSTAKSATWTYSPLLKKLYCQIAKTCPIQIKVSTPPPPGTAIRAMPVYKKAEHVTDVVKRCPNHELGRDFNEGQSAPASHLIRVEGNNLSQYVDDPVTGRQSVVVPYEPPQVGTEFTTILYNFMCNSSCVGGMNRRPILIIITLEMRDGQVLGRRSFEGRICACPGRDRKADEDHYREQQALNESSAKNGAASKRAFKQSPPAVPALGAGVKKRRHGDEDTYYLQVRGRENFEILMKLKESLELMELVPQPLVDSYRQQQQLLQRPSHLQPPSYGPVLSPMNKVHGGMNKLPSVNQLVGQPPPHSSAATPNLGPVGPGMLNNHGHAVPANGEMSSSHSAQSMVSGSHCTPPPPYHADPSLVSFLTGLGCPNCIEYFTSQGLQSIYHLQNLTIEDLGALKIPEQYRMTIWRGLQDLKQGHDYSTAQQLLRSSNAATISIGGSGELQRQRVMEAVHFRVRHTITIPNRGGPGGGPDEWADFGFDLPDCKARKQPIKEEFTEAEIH
Protocol: (§1) Whole cell lysates were centrifuged at 15000 rpm for 15 minutes to remove cell debris. The obtained supernatant was pretreated at 4° C. for 30 minutes with protein G-Sepharose (50% slurry, 30 μL; Amersham Pharmacia Biotech). After centrifugation, the supernatant was incubated at 4° C. for 2 hours with an anti-HA polyclonal (Medical and Biological Laboratories) or anti-FLAG monoclonal antibody. The immunocomplexes were precipitated at 4° C. for 30 minutes with protein G-Sepharose beads. After collection by brief centrifugation, the immunoprecipitates were washed three times with lysis buffer, then suspended in 30 μL of 2×Laemmli SDS sample buffer, and treated at 100° C. for 5 minutes. The supernatant was loaded onto 10% SDS-PAGE and analyzed by immunoblot as described above.
(§2) To investigate whether IKK-α interacted with p73 in cultured mammal cells, whole cell lysates were prepared from transfected COS7 cells, then immunoprecipitated with an anti-FLAG or anti-HA antibody, and analyzed by immunoblot using an anti-p73 or anti-FLAG antibody, respectively. […] Likewise, HA-p73β was co-immunoprecipitated with FLAG-IKK-α (data not shown). […] To identify determinants of p73 participating in the interaction with IKK-α, several deletion mutants of p73 fused to GST were prepared and examined for their abilities to bind to FLAG-IKK-α by in-vitro pull-down assay. These mutants were designed on the basis of the functional domains of p73 including transactivation, DNA-binding, oligomerization, and SAM domains (FIG. 12).

p73 [2] = biological target: T3, p73 (Homo sapiens, UniProt O15350); experiment: as above; format: binding; conditions: COS7, data not shown
T3 construct: expressed in transfected cells; host or cells: COS7
T3 sequence (O15350 1-499 isoform O15350-2): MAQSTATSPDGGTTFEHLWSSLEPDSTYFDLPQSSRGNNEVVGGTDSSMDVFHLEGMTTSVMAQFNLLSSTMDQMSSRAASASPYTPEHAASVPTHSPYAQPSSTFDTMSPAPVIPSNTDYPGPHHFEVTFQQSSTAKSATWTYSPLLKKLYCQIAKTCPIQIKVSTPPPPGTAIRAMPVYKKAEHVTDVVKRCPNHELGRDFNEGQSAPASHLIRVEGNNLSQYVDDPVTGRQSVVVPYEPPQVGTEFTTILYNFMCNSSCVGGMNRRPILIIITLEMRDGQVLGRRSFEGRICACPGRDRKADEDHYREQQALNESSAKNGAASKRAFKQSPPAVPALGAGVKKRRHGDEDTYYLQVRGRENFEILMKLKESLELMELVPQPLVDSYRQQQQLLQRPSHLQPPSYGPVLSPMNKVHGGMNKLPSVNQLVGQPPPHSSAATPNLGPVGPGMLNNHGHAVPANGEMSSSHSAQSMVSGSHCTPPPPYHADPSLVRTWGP
Protocol: as §1, §2

B1: IKK-α: IKK-α protein, amino acid sequence SEQ ID NO: 24, expressed from plasmid; apoptosis enhancer (protein, listed as Homo sapiens)
chain: MERPPGLRPGAGGPWEMRERLGTGGFGNVCLYQHRELDLKIAIKSCRLELSTKNRERWCHEIQIMKKLNHANVVKACDVPEELNILIHDVPLLAMEYCSGGDLRKLLNKPENCCGLKESQILSLLSDIGSGIRYLHENKIIHRDLKPENIVLQDVGGKIIHKIIDLGYAKDVDQGSLCTSFVGTLQYLAPELFENKPYTATVDYWSFGTMVFECIAGYRPFLHHLQPFTWHEKIKKKDPKCIFACEEMSGEVRFSSHLPQPNSLCSLIVEPMENWLQLMLNWDPQQRGGPVDLTLKQPRCFVLMDHILNLKIVHILNMTSAKIISFLLPPDESLHSLQSRIERETGINTGSQELLSETGISLDPRKPASQCVLDGVRGCDSYMVYLFDKSKTVYEGPFASRSLSDCVNYIVQDSKIQLPIIQLRKVWAEAVHYVSGLKEDYSRLFQGQRAAMLSLLRYNANLTKMKNTLISASQQLKAKLEFFHKSIQLDLERYSEQMTYGISSEKMLKAWKEMEEKAIHYAEVGVIGYLEDQIMSLHAEIMELQKSPYGRRQGDLMESLEQRAIDLYKQLKHRPSDHSYSDSTEMVKIIVHTVQSQDRVLKELFGHLSKLLGCKQKIIDLLPKVEVALSNIKEADNTVMFMQGKRQKEIWHLLKIACTQSSARSLVGSSLEGAVTPQTSAWLPPTSAEHDHSLSCVVTPQDGETSAQMIEENLNCLGHLSTIIHEANEEQGNSMMNLDWSWLTE
For B1, which “binding to GST-p73 deletion mutants” value (GST-p73 fusion proteins) is on record?
The value was “bonded to GST-p73 (114-328) but not to other GST-fused proteins”.

And the “stabilization of p53” value (p53)?
The value was “no detectable effect on the stabilization of FLAG-p53”.

And the “complex formation with HA-p73α” value (p73 [1])?
Its value is “formed stable complexes”.

What about the “co-immunoprecipitation with HA-p73β” value (p73 [2]) of the same molecule?
Its value is “co-immunoprecipitated”.
